For one series, the target named is T1, SNF1 (UniProt P06782 1-633, limits assumed).
T1 sequence (looked up): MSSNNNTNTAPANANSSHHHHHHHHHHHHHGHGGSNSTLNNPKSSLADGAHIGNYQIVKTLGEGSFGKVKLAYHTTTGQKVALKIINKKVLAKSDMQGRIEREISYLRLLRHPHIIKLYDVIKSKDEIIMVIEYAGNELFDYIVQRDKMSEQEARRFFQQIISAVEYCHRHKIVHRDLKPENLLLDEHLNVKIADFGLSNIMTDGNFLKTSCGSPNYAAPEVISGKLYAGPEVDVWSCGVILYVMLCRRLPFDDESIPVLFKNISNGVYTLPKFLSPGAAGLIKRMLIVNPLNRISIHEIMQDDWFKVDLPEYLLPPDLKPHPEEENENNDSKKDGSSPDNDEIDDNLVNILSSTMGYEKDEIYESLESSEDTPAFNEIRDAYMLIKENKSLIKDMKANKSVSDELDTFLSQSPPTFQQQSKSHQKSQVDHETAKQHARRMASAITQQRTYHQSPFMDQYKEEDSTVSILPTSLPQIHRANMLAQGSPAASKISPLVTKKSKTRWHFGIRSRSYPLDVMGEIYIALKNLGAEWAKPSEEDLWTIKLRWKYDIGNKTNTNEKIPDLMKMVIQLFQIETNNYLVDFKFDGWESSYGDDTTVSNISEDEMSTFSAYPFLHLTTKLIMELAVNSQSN
Nature of the series: yeast two-hybrid beta-galactosidase filter assay (SFY526); row = Gal4 DNA-binding-domain hybrid, column = activation-domain hybrid; + = strong color within 90 min; positive control.

For another series, the target named is T2, Mouse Fas-IC 197-306 (mouse, UniProt P25446 218-327).
T2 construct: range 197-306
T2 sequence (looked up): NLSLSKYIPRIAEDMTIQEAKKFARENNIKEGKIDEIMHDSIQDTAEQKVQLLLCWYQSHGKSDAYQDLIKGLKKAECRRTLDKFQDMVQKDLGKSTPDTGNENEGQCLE
Nature of the series: yeast two-hybrid beta-galactosidase filter assay (SFY526); row = Gal4 DNA-binding-domain hybrid, column = activation-domain hybrid; ++ = strong color within 30 min.

Series [1] concerns the molecule itself. The description is as above.
The next series concerns the target T3, Mouse Fas-IC, full (mouse, UniProt P25446 187-327).
T3 construct: domain: FAS-IC (intracellular domain); also called mFAS-IC
T3 sequence (looked up): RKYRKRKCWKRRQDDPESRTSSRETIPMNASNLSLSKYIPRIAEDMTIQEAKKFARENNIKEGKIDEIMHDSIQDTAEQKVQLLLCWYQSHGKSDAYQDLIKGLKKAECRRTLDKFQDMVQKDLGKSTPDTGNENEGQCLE
Described as above.

Series [2] concerns the target T4, GST-mFAS-IC I225A (GST fusion with FAS-IC containing an Ile to Ala replacement at position 225) (mouse, UniProt P25446 187-327).
T4 construct: also called GST-FAS-IC with a replacement at the lpr^cg mutation site; not shown: Glutathione S-transferase (GST)
T4 sequence (looked up): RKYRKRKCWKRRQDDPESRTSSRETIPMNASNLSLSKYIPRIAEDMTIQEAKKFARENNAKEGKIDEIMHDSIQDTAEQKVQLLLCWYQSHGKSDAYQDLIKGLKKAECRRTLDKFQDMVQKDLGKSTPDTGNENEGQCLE
The series is described as follows: GST pull-down: 35S-labeled FLAG-HF1 from HeLa extracts on GST fusion bound to glutathione beads, SDS-PAGE and autoradiography. An excerpt:
The [³⁵S] labeled proteins of the HeLa cells including the labeled FLAG-MORT1 fusion protein having been first extracted were subjected to interaction with the various GST and GST-FAS-IC proteins (bound to glutathione beads) and then to SDS-PAGE. As controls in all of the interaction experiments, extracts of HeLa cells transfected with luciferase were subjected to interactions with the GST and GST-FAS-IC fusion proteins and SDS-PAGE. FIGS. 1A and B are also described in Example 1.
Expression of HF1 (MORT-1) molecules fused at their N terminus with the FLAG octapeptide (FLAG-HF1) yielded in HeLa cells proteins of four distinct sizes—about 27, 28, 32, and 34 kD. […] Thus the in vitro interaction was evaluated by assessing, by autoradiography following SDS-PAGE, the binding of [³⁵S] metabolically labeled HF1, produced in transfected HeLa cells as a fusion with the FLAG octapeptide (FLAG-HF1), to GST, GST fusion with the human or mouse FAS-IC (GST-huFAS-IC, GST-mFAS-IC) or to GST fusion with FAS-IC containing an Ile to Ala replacement mutation at position 225.

B1: SNF4 (other, UniProt P12904 1-322, looked up)
chain: MKPTQDSQEKVSIEQQLAVESIRKFLNSKTSYDVLPVSYRLIVLDTSLLVKKSLNVLLQNSIVSAPLWDSKTSRFAGLLTTTDFINVIQYYFSNPDKFELVDKLQLDGLKDIERALGVDQLDTASIHPSRPLFEACLKMLESRSGRIPLIDQDEETHREIVVSVLTQYRILKFVALNCRETHFLKIPIGDLNIITQDNMKSCQMTTPVIDVIQMLTQGRVSSVPIIDENGYLINVYEAYDVLGLIKGGIYNDLSLSVGEALMRRSDDFEGVYTCTKNDKLSTIMDNIRKARVHRFFVVDDVGRLVGVLTLSDILKYILLGSN
Take B1: in the series with SNF1, the binding result was “binds”.

B2: MORT-1 (full) (other)
chain: VNQAPECRFGGGILGPLGKRRDLARASEPRTEGARRAGPQPRPLADPAMDPFLVLLHSVSSSLSSSELTELKFLCLGRVVKRKLERVQSGLDLFSMLLEQNDLEPGHTELLRELLASLRRHDLLRRVDDFEAGAAAGAAPGEEDLCAAFNVICDNVGKDWRRLARQLKVSDTKIDSIEDRYPRNLTERVRESLRIWKNTEKENATVAHLVGALRSCQMNLVADLVQEVQQARDLQNRSGAMSPMSWNSDASTSEAS
notes: The Gal4 part is not written as a piece; Met 49 is a possible translation start; also called HF1; HF-1
For the molecule B2, the binding result is given as “binds” with Mouse Fas-IC 197-306; “binds” in series [1]; “binds” with Mouse Fas-IC, full.

B3: FLAG-MORT1 fusion protein (MORT-1 N-linked to the FLAG octapeptide) (other)
chain: VNQAPECRFGGGILGPLGKRRDLARASEPRTEGARRAGPQPRPLADPAMDPFLVLLHSVSSSLSSSELTELKFLCLGRVVKRKLERVQSGLDLFSMLLEQNDLEPGHTELLRELLASLRRHDLLRRVDDFEAGAAAGAAPGEEDLCAAFNVICDNVGKDWRRLARQLKVSDTKIDSIEDRYPRNLTERVRESLRIWKNTEKENATVAHLVGALRSCQMNLVADLVQEVQQARDLQNRSGAMSPMSWNSDASTSEAS
modifications: metabolically labeled with [35S]methionine (and [35S]cysteine for the co-immunoprecipitations)
notes: also called FLAG-HF1; HF1-FLAG; not shown: FLAG octapeptide (Eastman Kodak)
As to B3, the binding result in series [2] is recorded as “no binding”.

Source of the values: US20020058798A1 (YEDA RESEARCH AND DEVELOPMENT, published 2002).
